Assay results taken from publication PMC6224377 (2018).

Target: hROR2-ECD-Twin-Strep (soluble human ROR2 extracellular domain fused to a Twin-Strep-tag) (human, UniProt Q01974 34-403)
Assay: SPR

Sequence of hROR2-ECD-Twin-Strep (soluble human ROR2 extracellular domain fused to a Twin-Strep-tag) (Q01974 34-403): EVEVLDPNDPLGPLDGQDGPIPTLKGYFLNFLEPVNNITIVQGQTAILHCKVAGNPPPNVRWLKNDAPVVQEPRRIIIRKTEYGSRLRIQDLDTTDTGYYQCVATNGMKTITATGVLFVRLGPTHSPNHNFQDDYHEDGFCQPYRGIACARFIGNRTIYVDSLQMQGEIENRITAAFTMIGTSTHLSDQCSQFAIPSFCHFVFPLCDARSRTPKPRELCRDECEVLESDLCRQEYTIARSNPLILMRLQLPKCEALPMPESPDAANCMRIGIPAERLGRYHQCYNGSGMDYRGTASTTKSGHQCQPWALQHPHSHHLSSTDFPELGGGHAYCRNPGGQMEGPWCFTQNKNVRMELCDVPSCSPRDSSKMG

Binder | Kd
GK-1E5 (antibody, V domains shown) VH: EVQLVESGGGVVQPGRSLRLSCAASGFTFRSYGMHWVRQAPGKGLEWVAIIWYDGSKKYYTDSVQGRFTISRDNSKNTLYLQMNSLRAEDTAVYYCARPGIAMTGLDYWGQGTLVTVSS VL: DIQLTQSPSTLSASVGDRVTITCRASQSISSWLAWYQQKPGKAPKLLIYKASSLESGVPSRFSGSGSGTEFTLTISSLQPDDFATYYCQQYNNYWTFGQGTKVEIK | 80.7 nM
GK-5A1 (antibody, V domains shown) VH: QVQLVESGGGVVQPGRSLRLSCAASGFTFSSYGMYWVRQAPGKGLEWVAVIWNDGSNKYYADSVKGRFTISRDNSKNTLYLQMNSLRAEDTAVYYCAREGSGWYDYYYGMDVWGQGTTVTVSS VL: EIVLTQSPSTLSASVGDRVTITCRASQSISSWLAWYQQKPGKAPKLLIYKASSLESGVPSRFSGSGSGTEFTLTISSLQPDDFATYYCQQYNSYWTFGQGTKVDIK | 61.3 nM
GK-5E1 (antibody, V domains shown) VH: QVTLKESGGDVVQPGRSLRLSCAASGFTFRTYGMHWVRQAPGKGPEWVALIWYDGSKKYYADSVKGRFTISRDNSKNTLYLQMNSLRAEDTAVYYCVRVRFGELYFQHWGQGTLVTVSS VL: not shown | 2.5 nM
